Measurements reported in the RNAGym collection of RNA variant scans (doi:10.7554/elife.90254).

B1: LINE1-mini (parent)
chain: GGCAGAGCUCAACACAGCGUGGCAAAGUGGCUGUGGCUAGACUGCC

Variants of: B1
Assay: self-cleavage, relative activity (ratio to wild type); higher = more cleavage; in vitro, sequencing; the parent is a self-cleaving ribozyme

Variant | self-cleavage
GGCAGAGCUCAACACAGCGUGGCAAAGUAGCUGUGGCUAGUCUGCC [G29A A41U] | 0.74
GGCAGAUCUCAACACAGCGUGGCAAAGUGGCUGUGGCCAGACUGCC [G7U U38C] | 0.05
GGCAGAGCUCAACACCGCGUGGCAAAGUGCCUGUGGCUAGACUGCC [A16C G30C] | 0.12
GGCACAGCUCAACACAGCGUGGCAAGGUGGCUGUGGCUAGACUGCC [G5C A26G] | 0.05
GGCAGAGCUCGACACAGCGUGGCAAAGUGGCUGUGGCUCGACUGCC [A11G A39C] | 0.04
GGCAGAGCUCAACACAGCGUGGUAAAGUGGGUGUGGCUAGACUGCC [C23U C31G] | 0.16
GGCAGAGCUCAACACAGCGUGGCAAAGUGGCUGUGACUAGACUUCC [G36A G44U] | 0.15
GGCAGAGCUCAACACAGCGGGGCAAAGUGACUGUGGCUAGACUGCC [U20G G30A] | 0.66
GGCAGAGCGCAACAUAGCGUGGCAAAGUGGCUGUGGCUAGACUGCC [U9G C15U] | 0.17
GGCAGAGCUCAACACAGCGGGGCAAAGUGGCUGUGGCUAGCCUGCC [U20G A41C] | 0.02
GGCAGAGCUCAACACAGCGUAUCAAAGUGGCUGUGGCUAGACUGCC [G21A G22U] | 0.56
GCCAGAGCUCAAGACAGCGUGGCAAAGUGGCUGUGGCUAGACUGCC [G2C C13G] | 0.03
GGCAGAGCUCAACACAGCGUGGCAAAUUGGCUGUGGCAAGACUGCC [G27U U38A] | 0.39
GGCAGAGCUCAACACAGCGUGGCUAAGUCGCUGUGGCUAGACUGCC [A24U G29C] | 0.58
GGCAGAGCUUAACACAGCGUGGCAAAGUGGCUGUGACUAGACUGCC [C10U G36A] | 0.08
GGCAGAGCUCUACACAGCGUGGCAAAGUGGCUGUGGCUCGACUGCC [A11U A39C] | 0.07
GUCAGAGCUCAACACAGCGUGGCAAAGUGGCUGUGGCUAAACUGCC [G2U G40A] | 0.03
GGCACAGCUCAACACAGCGUGGCAAAGUCGCUGUGGCUAGACUGCC [G5C G29C] | 0.05
GGCAGAGCUCAACACAGCGUUGCAAAGUGGCUGUUGCUAGACUGCC [G21U G35U] | 0.22

Variant | self-cleavage
GGCAGAGCUCAACACAGCGUGGCAAAGUGGCAGUGGCUAGACUGCG [U32A C46G] | 0.28
GGCAGAGCUCAACACAGCGUGGCAAAGUGCCUGUGGCUACACUGCC [G30C G40C] | 0.18
GGCAGAGCUCAACACAGCGUGGCAAAGGGGCUGUGGCUAGACGGCC [U28G U43G] | 0
GGCAGAGCUCAACACAGCGUGGCAUAGUGGCUGGGGCUAGACUGCC [A25U U34G] | 0.16
GACAGAGCUCAACGCAGCGUGGCAAAGUGGCUGUGGCUAGACUGCC [G2A A14G] | 0.81
GGCAGAGCUCAACACAGCGUUGCAAAGAGGCUGUGGCUAGACUGCC [G21U U28A] | 0.51
GGCAGAGCUCCACACAGCGUGGCAAUGUGGCUGUGGCUAGACUGCC [A11C A26U] | 0.11
GGCAGCGCUCAACACAGCGUAGCAAAGUGGCUGUGGCUAGACUGCC [A6C G21A] | 1.34
GGCAGAGCUCAACACAGCAUGGCAAAGUGGCGGUGGCUAGACUGCC [G19A U32G] | 0.1
GGCAGAGCUGAACACAGCGUGGCAAAGUGGCUGUGGCUAGACUACC [C10G G44A] | 0.05
GGCAGAGCUCAACACAGCUUGGCAAAGUGGCUGUGGCUAGUCUGCC [G19U A41U] | 0.41
GGCAGAGCUCAACACUGCGUGGCAAAGUGGCUGUGGCUAGUCUGCC [A16U A41U] | 0.07
GGCAAAGCUCAACACAGUGUGGCAAAGUGGCUGUGGCUAGACUGCC [G5A C18U] | 0.14
CGCAGAGCUCACCACAGCGUGGCAAAGUGGCUGUGGCUAGACUGCC [G1C A12C] | 0.02
GGCAGAGCUCAACGCAGCGUGGCAAAGGGGCUGUGGCUAGACUGCC [A14G U28G] | 0.3
GGCAGAGCUCAAAACAGCGUGGCAAAGUUGCUGUGGCUAGACUGCC [C13A G29U] | 0.2
GGCAGAGCUCAACACAGCGUGGCAAAGUGGCUGUGGCUAGACCGCG [U43C C46G] | 0.12
GGCAGAGCUCAACACAUCGUGGCAAAGUGGCUGUGGCUAGUCUGCC [G17U A41U] | 0.09
GGCAGAGCUCAACACAGCGUGGCAAAGCGGCUGUGGCUAGACAGCC [U28C U43A] | 0.08

Variant | self-cleavage
GGCAGAGCUCAACACAGCGUGGCAAAGUGUCUGUGGCUAGACUGUC [G30U C45U] | 1.11
GGCAGAGCUCAACGCAGCGUGGCAAAGUGGCUGUGGCUAGUCUGCC [A14G A41U] | 0.77
GGCAGAGCUGAACACAGCGUGGCAAAGUGGCUGUGGCUAGAGUGCC [C10G C42G] | 0.03
GGCAUAGCUCAACACAGCGUGGCAAAGUGGCUGUGGCUAGACUGUC [G5U C45U] | 0.08
GGAAGAGCUCAACACAGCUUGGCAAAGUGGCUGUGGCUAGACUGCC [C3A G19U] | 0.24
GGCAGAGCUCAUCACAGCGUGGCAAAGUGGCCGUGGCUAGACUGCC [A12U U32C] | 0.07
GGCAGAGCGCAACACAGCGUGGCAAAGUGGCUGUGCCUAGACUGCC [U9G G36C] | 0.04
GGCAGAGCUCAAGACAGCGUGGCAAAGUGGCUGAGGCUAGACUGCC [C13G U34A] | 0.04
GGCAGAGCUCAACACAGCGUGGCCAAGUAGCUGUGGCUAGACUGCC [A24C G29A] | 1.02
GGCAGAGCUGAACAUAGCGUGGCAAAGUGGCUGUGGCUAGACUGCC [C10G C15U] | 0.09
GGCAGAGCUCAGCACAGCGUGGCAAAGUGGCUGGGGCUAGACUGCC [A12G U34G] | 0.02
GGCAGAGCUCAACACAGCGUGGCAAAGUGGCUGUGGCUCGACUACC [A39C G44A] | 0.08
GGCAGAGCUCAACACAGCGUGGCAAAGUGGCUGUGGCUAGUCUGCC [A41U] | 0.67
GGCAGAGCUCAACAUAGCGUGGCAAAUUGGCUGUGGCUAGACUGCC [C15U G27U] | 1.36
GGCAGAGCUCAACACAGCUUGGCGAAGUGGCUGUGGCUAGACUGCC [G19U A24G] | 0.45
GGCAGAGCUCAACACAGCGUAGCAAAGUGACUGUGGCUAGACUGCC [G21A G30A] | 1.73
GUCAGAGUUCAACACAGCGUGGCAAAGUGGCUGUGGCUAGACUGCC [G2U C8U] | 0.1
GGCAGAGCUCAACACAGCGUGGCAAAGUGUCUGUGGCUAGACUGCA [G30U C46A] | 1.42
